Reference: paper PMC9237115 (2022)
Where two headings read alike, the source gives them in different places.

Key:
[1] = molecular target: T1, Full-length human Tau (MAPT) (human, UniProt P10636-8 1-441)
[2] = molecular target: Cdk2-phosphorylated Tau (PTau^Cdk2) (human, UniProt P10636-8 1-441, phosphorylated in vitro by Cdk2/CyA2, heterogeneously; LC-MS/MS confirmed phosphorylation of the AT8 (S202 and T205), AT180 (T231 and S235) and PHF1 (S396 and S404) epitopes; full list of sites in …); experiment: Cdk2-phosphorylated Tau
Cdk2-phosphorylated Tau (PTau^Cdk2), sequence (P10636 other isoform, or with tags, fused parts or gaps): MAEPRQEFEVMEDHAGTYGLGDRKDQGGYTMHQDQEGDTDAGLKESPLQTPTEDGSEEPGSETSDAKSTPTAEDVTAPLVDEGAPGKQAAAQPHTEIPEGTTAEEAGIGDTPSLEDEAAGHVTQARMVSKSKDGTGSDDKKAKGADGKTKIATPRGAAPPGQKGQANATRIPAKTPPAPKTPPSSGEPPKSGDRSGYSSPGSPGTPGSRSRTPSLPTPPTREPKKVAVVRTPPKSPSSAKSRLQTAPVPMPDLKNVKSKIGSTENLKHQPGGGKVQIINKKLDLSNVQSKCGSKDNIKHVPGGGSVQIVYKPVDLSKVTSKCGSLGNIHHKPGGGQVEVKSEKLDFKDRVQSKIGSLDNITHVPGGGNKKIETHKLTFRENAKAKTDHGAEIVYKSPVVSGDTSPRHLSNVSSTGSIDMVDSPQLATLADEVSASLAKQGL

[3] = molecular target: T1, Full-length human Tau (MAPT); experiment: previously reported (ref 2)

T1 sequence (P10636 other isoform, or with tags, fused parts or gaps): as above

B1: Hsp90 (HSP90AB1) (natural protein)
chain: not shown
- Kd [1]: 4.1 µM
- Kd [2]: 27.9 µM
- Kd [3]: 4.8 µM
